# B1: LINE1-mini (parent)
# chain: GGCAGAGCUCAACACAGCGUGGCAAAGUGGCUGUGGCUAGACUGCC
# Variants of: B1
# Assay: self-cleavage, relative activity (ratio to wild type); higher = more cleavage; in vitro, sequencing; the parent is a self-cleaving ribozyme
row,Variant,self-cleavage
1,A24C U34A,0.07
2,A24C U34C,0.12
3,A24C U28A,0.6
4,A24C U28G,0.35
5,A24C U28C,0.69
6,A24C C37U,0.06
7,A24C C37A,0.03
8,A24C C37G,0.02
9,A24U G30A,0.97
10,A24U G30C,0.62
11,A24U G30U,1.46
12,C23U G44A,0.64
13,C23U G44U,0.32
14,C23U G44C,0.48
15,A25C U38A,0.22
16,A25C U38G,0.02
17,A25C U38C,0.46
18,A25C G40U,0.08
19,A25C G40A,0.1
20,A25C G40C,0.06
21,A24U C37A,0.05
22,A24U C37U,0.07
23,A24U C37G,0.05
24,A24C A41U,0.26

row,Variant,self-cleavage
1,A24C A41C,0.04
2,A24C A41G,0.25
3,A24C G29U,0.87
4,A24C G29C,0.54
5,A24C G29A,1.02
6,C23U G29A,1.11
7,C23U G29U,0.85
8,C23U G29C,0.52
9,C23U U28A,0.82
10,C23U U28C,1.37
11,C23U U28G,0.6
12,A25C A39G,0.07
13,A25C A39U,0.52
14,A25C A39C,0.08
15,A24U C31A,0.07
16,A24U C31U,0.25
17,A24U C31G,0.08
18,A24C A26U,0.43
19,A24C A26G,0.33
20,A24C A26C,0.28
21,A24U U32A,0.07
22,A24U U32C,0.2
23,A24U U32G,0.12
24,A25G C31A,0.1

row,Variant,self-cleavage
1,A24U G40U,0.19
2,A24U G40C,0.11
3,A24U G40A,0.14
4,A24G A41U,0.67
5,A24G A41G,0.6
6,A24G A41C,0.04
7,A25C U32C,0.25
8,A25C U32A,0.05
9,A25C U32G,0.05
10,A24G C42G,0.06
11,A24G C42U,0.41
12,A24G C42A,0.19
13,A24G C37U,0.05
14,A24G C37A,0.09
15,A24G C37G,0.1
16,A24C C31U,0.12
17,A24C C31G,0.03
18,A24C C31A,0.06
19,A24U G35A,0.12
20,A24U G35C,0.09
21,A24U G35U,0.38
22,A24U U28A,1.25
23,A24U U28C,0.69
24,A24U U28G,0.39

row,Variant,self-cleavage
1,C23U U38G,0.04
2,C23U U38C,0.93
3,C23U U38A,0.47
4,C23U C45A,0.47
5,C23U C45U,1.09
6,C23U C45G,0.51
7,A24G G35U,0.13
8,A24G G35C,0.17
9,A24G G35A,0.12
10,A24C U38C,0.31
11,A24C U38A,0.3
12,A24C U38G,0.01
13,A24U G27U,0.8
14,A24U G27A,0.92
15,A24U G27C,0.61
16,A24U A39G,0.14
17,A24U A39U,1.99
18,A24U A39C,0.23
19,A24U,1.42
20,A24G,1.1
21,A24C,0.71
22,A24U U34G,0.24
23,A24U U34C,0.09
24,A24U U34A,0.08

row,Variant,self-cleavage
1,A24G G40C,0.18
2,A24G G40U,0.16
3,A24G G40A,0.13
4,A25G A39G,0.07
5,A25G A39C,0.22
6,A25G A39U,0.81
7,A24G G29U,1.07
8,A24G G29A,0.8
9,A24G G29C,0.48
10,C23U A26U,0.99
11,A24G C45U,1.23
12,A24G C45G,0.22
13,A24G C45A,1.47
14,C23U C42G,0.09
15,C23U C42A,0.25
16,C23U C42U,0.91
17,A24C G44A,0.18
18,A24C G44U,0.13
19,A24C G44C,0.47
20,A24U C42G,0.06
21,A24U C42U,0.4
22,A24U C42A,0.18
23,A24G C31A,0.15
24,A24G C31G,0.05

row,Variant,self-cleavage
1,A24G C31U,0.29
2,A25C C46U,0.56
3,A25C C46A,0.36
4,A25C C46G,0.75
5,A24C G35C,0.06
6,A24C G35A,0.09
7,A24C G35U,0.05
8,A24U A26U,1.34
9,A24U A26G,0.84
10,A24G A25U,1.3
11,A24G A25G,0.75
12,A25C A41C,0.04
13,A25C A41U,0.52
14,A25C A41G,0.28
15,C23U G30U,1.38
16,C23U G30C,2.32
17,C23U G30A,2.05
18,A24C C45U,0.7
19,A24C C45A,0.16
20,A24C C45G,0.16
21,A25C U43A,0.09
22,A25C U43G,0.12
23,A25C U43C,0.04
24,A24G G44U,0.15

row,Variant,self-cleavage
1,A24G G44C,0.66
2,A24G G44A,1
3,A24G U43G,0.19
4,A24G U43A,0.11
5,A24G U43C,0.2
6,A25C G27A,0.55
7,A25C G27C,0.39
8,A25C G27U,0.46
9,A24U C45A,0.31
10,A24U C45G,0.3
11,A24U C45U,0.91
12,C23U U32C,0.61
13,C23U U32A,0.2
14,C23U U32G,0.36
15,A24U A25C,1.63
16,A24U A25G,1.28
17,A24U A25U,1.48
18,C23U G36U,0.04
19,C23U G36A,0.14
20,C23U G36C,0.07
21,C23U C37U,0.04
22,C23U C37A,0.04
23,C23U C37G,0.02
